Test results published in PMC10351726 (PLOS ONE, 2023).

What was measured:
Settings in all cases: both partners purified
[1] = molecular target: T1, HER2-ECD biotinylated at single site (Homo sapiens, UniProt P04626, biotinylated at single site); assay: SPR; Biacore 8K; biotinylated HER2-ECD on a streptavidin chip; sdAbs injected in multi-cycle kinetics, 2-fold dilution series from 5 nM; 100 μL/min, 25°C, HBS-EP+ pH 7.4; 1:1 model
T1 construct: human HER2 extracellular domain; also called ECD of HER2; source: bought: Sino Biological

human HER2-ECD-Fc [2] = molecular target: T2, human HER2-ECD-Fc (Homo sapiens, UniProt P04626); assay: ELISA; microplates coated with human or mouse HER2-ECD-Fc, blocked with 1% BSA at room temperature; NM-02 serially diluted from 160 nM; detected with mouse anti-HA and anti-mouse IgG-alkaline phosphatase
T2 construct: human epidermal growth factor receptor-2 (HER2), extracellular domain; The supplier is named only for the cross-reactivity ELISA; also called recombinant human HER2-Fc; recombinant human HER2-ECD; source: bought: R&D systems

mouse HER2-ECD-Fc = molecular target: T3, mouse HER2-ECD-Fc (Mus musculus, UniProt P70424); assay: as above
T3 construct: mouse HER2 (ErbB2), extracellular domain; also called murine HER2-ECD; recombinant murine HER2-ECD; source: bought: R&D systems
T3 sequence (P70424 23-653): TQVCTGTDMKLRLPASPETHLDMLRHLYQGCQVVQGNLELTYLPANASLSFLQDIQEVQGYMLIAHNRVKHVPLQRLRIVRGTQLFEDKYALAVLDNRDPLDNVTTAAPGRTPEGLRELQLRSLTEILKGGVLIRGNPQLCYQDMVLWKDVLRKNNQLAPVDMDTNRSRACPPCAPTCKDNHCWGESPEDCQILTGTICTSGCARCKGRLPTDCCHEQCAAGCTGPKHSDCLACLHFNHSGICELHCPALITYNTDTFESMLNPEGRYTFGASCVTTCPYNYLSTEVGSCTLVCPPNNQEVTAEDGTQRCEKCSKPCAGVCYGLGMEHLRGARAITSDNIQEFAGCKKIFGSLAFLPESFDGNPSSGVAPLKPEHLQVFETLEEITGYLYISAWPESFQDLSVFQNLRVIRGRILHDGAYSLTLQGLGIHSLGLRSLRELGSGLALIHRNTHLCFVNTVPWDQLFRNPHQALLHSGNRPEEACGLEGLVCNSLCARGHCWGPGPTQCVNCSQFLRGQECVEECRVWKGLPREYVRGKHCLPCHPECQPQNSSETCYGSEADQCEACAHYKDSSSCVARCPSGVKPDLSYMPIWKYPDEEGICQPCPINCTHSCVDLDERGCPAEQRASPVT

human HER2-ECD-Fc [3] = molecular target: T2, human HER2-ECD-Fc; assay: ELISA; recombinant human HER2-Fc (1 μg/mL) coated on a MaxiSorp plate; His-tagged sdAb pre-incubated 7 days at 37°C in human, mouse or cynomolgus serum or PBS, then serially diluted; detected with anti-HIS-HRP

Row | Binder | binding result [1] | other results
1 | humanised NM-02 variant F (VHH, humanised variant F of NM-02; source: ExpiCHO-S, transiently transfected, purified (HisTrap Excel, SEC)) VHH: QVQLQESGGGLVQPGGSLRLSCSASGFTFDDSDMGWYRQAPGNECELVSSISSDGSTYYADSVKGRFTISQDNSKNTLYLQMNSLRAEDTAVYYCAAEGHRYELGTCAALDYWGRGTLVTVSS | binds | –
2 | NanoMab-02 (NM-02), HA- and His-tagged (VHH, camel (Camelus bactrianus) anti-HER2 single-domain antibody from a phage display library; In the ELISA and flow cytometry it was detected through the HA tag only; The microarray used the dual His6 + HA version (methods: 'either HA- and/or His-tagged'); also called dual tagged version of NM-02; duel-tagged NM-02) VHH: QVQLQESGGGSVQAGETLRLSCTASGFTFDDSDMGWYRQAPGNECELVSSISSDGSTYYADSVKGRFTISQDNAKNTVYLQMNSLKPEDTGVYYCAAEGHRYELGTCAALDYWGRGTQVTVSS | – | EC50 (human HER2-ECD-Fc [2]): 1.2 nM; binding result (mouse HER2-ECD-Fc): no binding (tested: 160 nM)
3 | lead humanised NM-02 candidate (variant K) (VHH, humanised variant K of NM-02, 82.5% human identity; also called humanised variant K; humanised lead; source: ExpiCHO-S, transiently transfected, purified (HisTrap Excel, SEC); not shown: His-tag (with short GSG linker), C-terminal, kept) VHH: QVQLQESGGGLVQPGGSLRLSCTASGFTFDDSDMGWYRQAPGNECELVSSISSDGSTYYADSVKGRFTISQDNSKNTLYLQMNSLRAEDTGVYYCAAEGHRYELGTCAALDYWGRGTLVTVSS | – | Kd [1]: 0.212 nM; fold more potent than variant E [1]: ≥ 2 fold; fold drop-off of activity after 7 days at 37°C in human serum versus PBS (human HER2-ECD-Fc [3]): 1.5 fold
4 | NanoMab-02 (NM-02) (VHH, camel (Camelus bactrianus) anti-HER2 single-domain antibody; residues Gln3 to Ser123 modelled in the structure; The humanised variants were made in ExpiCHO-S with a C-terminal GSG-His tag, and the parent run beside them may have the same format; also called parent; wild type NM-02) VHH: QVQLQESGGGSVQAGETLRLSCTASGFTFDDSDMGWYRQAPGNECELVSSISSDGSTYYADSVKGRFTISQDNAKNTVYLQMNSLKPEDTGVYYCAAEGHRYELGTCAALDYWGRGTQVTVSS | – | Kd [1]: ~0.2 nM
5 | humanised NM-02 variant I (VHH, humanised variant I of NM-02, with parental back mutations; source: ExpiCHO-S, transiently transfected, purified (HisTrap Excel, SEC)) VHH: QVQLQESGGGLVQPGGSLRLSCSASGFTFDDSDMGWYRQAPGNECELVSSISSDGSTYYADSVKGRFTISQDNSKNTLYLQMNSLRAEDTGVYYCAAEGHRYELGTCAALDYWGRGTQVTVSS | binds | –
6 | humanised NM-02 variant E (VHH, humanised variant E of NM-02, 83.5% human identity; also called mid-humanised candidate; source: ExpiCHO-S, transiently transfected, purified (HisTrap Excel, SEC)) VHH: QVQLQESGGGLVQPGGSLRLSCSASGFTFDDSDMGWYRQAPGNECELVSSISSDGSTYYADSVKGRFTISQDNSKNTLYLQMNSLRAEDTGVYYCAAEGHRYELGTCAALDYWGRGTLVTVSS | binds | –
7 | humanised NM-02 variant B (VHH, humanised variant B of NM-02; source: ExpiCHO-S, transiently transfected, purified (HisTrap Excel, SEC)) VHH: QVQLQESGGGLVQPGETLRLSCAASGFTFDDSDMGWYRQAPGNECELVSSISSDGSTYYADSVKGRFTISQDNSKNTLYLQMNSLRAEDTGVYYCAAEGHRYELGTCAALDYWGRGTLVTVSS | binds | –
8 | humanised NM-02 variant M (VHH, humanised variant M of NM-02, with parental back mutations; source: ExpiCHO-S, transiently transfected, purified (HisTrap Excel, SEC)) VHH: QVQLQESGGGLVQPGGSLRLSCSASGFTFDDSDMGWYRQAPGNECELVSSISSDGSTYYADSVKGRFTISQDNSKNTVYLQMNSLRAEDTGVYYCAAEGHRYELGTCAALDYWGRGTLVTVSS | binds | –
9 | humanised NM-02 variant G (VHH, humanised variant G of NM-02, with parental back mutations; source: ExpiCHO-S, transiently transfected, purified (HisTrap Excel, SEC)) VHH: QVQLQESGGGLVQPGGSLRLSCSASGFTFDDSDMGWYRQAPGNECELVSSISSDGSTYYADSVKGRFTISQDNSKNTLYLQMNSLRAEDTAVYYCAAEGHRYELGTCAALDYWGRGTQVTVSS | binds | –
10 | humanised NM-02 variant J (VHH, humanised variant J of NM-02, with parental back mutations; source: ExpiCHO-S, transiently transfected, purified (HisTrap Excel, SEC)) VHH: QVQLQESGGGSVQPGGSLRLSCSASGFTFDDSDMGWYRQAPGNECELVSSISSDGSTYYADSVKGRFTISQDNSKNTLYLQMNSLRAEDTGVYYCAAEGHRYELGTCAALDYWGRGTQVTVSS | binds | –
11 | humanised NM-02 variant H (VHH, humanised variant H of NM-02, with parental back mutations; source: ExpiCHO-S, transiently transfected, purified (HisTrap Excel, SEC)) VHH: QVQLQESGGGSVQPGGSLRLSCSASGFTFDDSDMGWYRQAPGNECELVSSISSDGSTYYADSVKGRFTISQDNSKNTLYLQMNSLRAEDTAVYYCAAEGHRYELGTCAALDYWGRGTLVTVSS | binds | –
12 | humanised NM-02 variant D (VHH, humanised variant D of NM-02; source: ExpiCHO-S, transiently transfected, purified (HisTrap Excel, SEC)) VHH: QVQLQESGGGLVQPGGSLRLSCAASGFTFDDSDMGWYRQAPGNECELVSSISSDGSTYYADSVKGRFTISQDNSKNTLYLQMNSLRAEDTGVYYCAAEGHRYELGTCAALDYWGRGTLVTVSS | binds | –
13 | humanised NM-02 variant L (VHH, humanised variant L of NM-02, with parental back mutations; source: ExpiCHO-S, transiently transfected, purified (HisTrap Excel, SEC)) VHH: QVQLQESGGGLVQPGGSLRLSCSASGFTFDDSDMGWYRQAPGNECELVSSISSDGSTYYADSVKGRFTISQDNAKNTLYLQMNSLRAEDTGVYYCAAEGHRYELGTCAALDYWGRGTLVTVSS | binds | –
14 | humanised NM-02 variant N (VHH, humanised variant N of NM-02, with parental back mutations; source: ExpiCHO-S, transiently transfected, purified (HisTrap Excel, SEC)) VHH: QVQLQESGGGLVQPGGSLRLSCSASGFTFDDSDMGWYRQAPGNECELVSSISSDGSTYYADSVKGRFTISQDNSKNTLYLQMNSLRPEDTGVYYCAAEGHRYELGTCAALDYWGRGTLVTVSS | binds | –
